Measurements taken from the supplement of paper PMC10266784.

B1: library; numbered along this chain (parent)
chain: MAAAAAAAAEQQSSNGPVKKSMREKAVERRSVNKEHNSNFKAGYIPIDEDRLHKTGLRGRKGNLAICVIILLFILAVINLIITLVIWAVIRIGPNGCDSMEFHESGLLRFKQVSDMGVIHPLYKSTVGGRRNENLVITGNNQPIVFQQGTTKLSVENNKTSITSDIGMQFFDPRTQNILFSTDYETHEFHLPSGVKSLNVQKASTERITSNATSDLNIKVDGRAIVRGNEGVFIMGKTIEFHMGGNMELKAENSIILNGSVMVSTTRLPSSSSGDQLGSGDWVRYKLCMCADGTLFKVQVTSQNMGCQISDNPCGNTH

Variants of: B1
Assay: SGCB cell-surface expression functional score (HA stain, bin4 vs bin1, normalised to synonymous) (log10 ratio); higher = more cell-surface SGCB (functional)
Procedure: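 Deep mutational scan of full-length human SGCB (YFP-SGCB-HA, NNN codon sublibraries A-F) delivered by lentivirus at low MOI into ADG-HEK293 cells stably expressing SGCA, SGCD and SGCG. YFP-positive cells were stained for surface HA on unpermeabilized cells and FACS-sorted into bins. The functional score is log10(frequency in high bin 4 / frequency in low bin 1), normalised per chunk so that synonymous variants have mean 0 and SD 0.5. Scores are the median over codons and over duplicate biological replicates; scores below -0.5 are called non-functional. Scale: negative means deleterious.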

Row | Variant | SGCB cell-surface expression functional score (log10)
1 | T294L | 0.29
2 | R207M | 0.13
3 | I47P | 0.47
4 | V85F | -0.43
5 | F73T | -0.22
6 | N157M | 0.06
7 | G244D | 0.99
8 | R174Q | -1.07
9 | S254P | -0.77
10 | V283T | -0.38
11 | N157H | 0.06
12 | S31N | 0.37
13 | G117S | -0.38
14 | N157S | -0.08
15 | P94H | 0.01
16 | P173L | -0.21
17 | Q176V | -0.31
18 | I234H | -1.04
19 | T83E | -0.18
20 | V89A | -0.23
21 | V118N | -0.97
22 | G244C | 0.21
23 | S214R | -0.31
24 | I256Q | -0.26

Row | Variant | SGCB cell-surface expression functional score (log10)
25 | K202M | 0.2
26 | S302C | -0.53
27 | N304L | -0.14
28 | K250V | 0.37
29 | V283C | 0.36
30 | L191D | -1.17
31 | F146E | -0.7
32 | A203T | -0.59
33 | A251V | 0.46
34 | F73A | 0.13
35 | I218C | -0.48
36 | A3N | 0.29
37 | S210K | -1.43
38 | T138I | 0.11
39 | Q147V | 0.26
40 | N177C | 0.09
41 | N63T | 0.43
42 | P94W | 0.26
43 | V220Y | -0.43
44 | W282K | -0.08
45 | P192F | -0.5
46 | E252Y | 1.05
47 | L249V | 0.75
48 | K202W | -0.14

Row | Variant | SGCB cell-surface expression functional score (log10)
49 | E188M | -2.13
50 | M247L | 0.8
51 | A65E | -0.2
52 | R29K | -0.66
53 | Q169F | -1.89
54 | E133N | 0.04
55 | I45S | -0.08
56 | N253A | 0.49
57 | I69D | -0.11
58 | V89L | -1.13
59 | I78R | -0.54
60 | T55N | 0.75
61 | F233N | 0.87
62 | K20N | -0.16
63 | Q147W | 0.33
64 | L80C | 0.66
65 | V200T | -2.11
66 | V283Y | -0.55
67 | N15Q | 0.32
68 | Q142P | -1.08
69 | F73L | 0.03
70 | Q12I | -0.43
71 | N157I | -0.06
72 | L84A | 0

Row | Variant | SGCB cell-surface expression functional score (log10)
73 | L249S | 0.16
74 | I225V | 0.48
75 | F102M | -0.45
76 | S310N | 0.59
77 | S204Y | -0.38
78 | I166W | -2.63
79 | R58H | 0.19
80 | W282N | 0.08
81 | K196V | -0.07
82 | K124V | 0.39
83 | N246E | -0.206
84 | F180E | -1.03
85 | D215T | -0.88
86 | S214V | -0.18
87 | E248A | 0.29
88 | S302E | -0.24
89 | L198E | -2.32
90 | T205E | -0.93
91 | D183T | -0.79
92 | C314D | 0.34
93 | E28Y | 0.37
94 | M1K | 0.14
95 | E156H | -0.39
96 | L71A | 0.26

Row | Variant | SGCB cell-surface expression functional score (log10)
97 | P192H | -1.15
98 | H187E | 0.18
99 | R284H | 0.16
100 | M262F | 0.95
101 | S271W | -0.22
102 | L216V | -2.64
103 | F73N | 0.47
104 | S270I | 0.33
105 | Y44N | -0.24
106 | A212P | -0.25
107 | S164M | -2.05
108 | A3K | 0.06
109 | I70L | -0.1
110 | A7G | 0.2
111 | I47L | -0.14
112 | L122D | 0.28
113 | A26D | 0.34
114 | V68L | -0.04
115 | N211S | -0.02
116 | H120P | -1.27
117 | P313V | 0.23
118 | N132H | 0.63
119 | L268H | 0
120 | W282G | 0.21

Row | Variant | SGCB cell-surface expression functional score (log10)
121 | D275S | -0.06
122 | N217T | 0.16
123 | R109P | -1.41
124 | V85M | 0.58
125 | N312P | -0.09
126 | C288M | -1.54
127 | G274M | -0.11
128 | T55D | 0.39
129 | F241S | -1.23
130 | E133C | 0.05
131 | S273T | -0.52
132 | T213M | 0.76
133 | I255Q | -0.37
134 | A291S | -0.06
135 | D165H | 0.61
136 | H120K | -0.13
137 | D221Q | 0.74
138 | N158P | -0.76
139 | V127F | -0.12
140 | S271G | 0.33
141 | L268F | 0.46
142 | F102P | -1.4
143 | S210E | -1.75
144 | G280V | 0.01

Row | Variant | SGCB cell-surface expression functional score (log10)
145 | T83N | 0.2
146 | G167Q | -0.39
147 | T83M | 0.14
148 | F110W | -1.08
149 | G128K | -1.35
150 | K34R | 0.1
151 | E28M | 0.57
152 | N134C | -0.25
153 | V200M | -0.63
154 | Q299A | 0.08
155 | I119L | -0.19
156 | L71N | 0.19
157 | T301E | 0.06
158 | N79C | 0.15
159 | D50C | 0
160 | L80K | -0.07
161 | G56R | 0.14
162 | S114T | -0.37
163 | K250L | 0.54
164 | I218G | -1.15
165 | L75P | 0
166 | G106H | -0.43
167 | N63L | 0.03
